Results reported in patent US11407811B2, “Fusion protein, preparation method therefor and use thereof” (JIANGSU RONGTAI BIOTECH CO., LTD., priority 2017, dated 2022).

What was measured:
[1] = test system: diabetic retinopathy rat model; assay: Neovascularization in diabetic retinopathy rat model (STZ); format: in vivo; conditions: 100 μg dose, intravitreal injection
Method: The experimental diabetic rat model was established with streptozotocin STZ. STZ was dissolved in 0.1 mol/L citrate buffer at pH 4.5 to prepare a 2% solution. All experimental Wistar rats were fasted for 12 h before injection, and each rat was intraperitoneally injected with a 2% STZ solution at a dose of 65 mg/kg. After the injection, the rats were fed in single cages, and urine sugar and blood sugar were detected at the 48th hour. When urine sugar was +++ or above, and blood glucose was higher than 16.7 mmol/L, the model establishment requirement is reached. The diabetic retinopathy model was successfully established by detecting blood glucose, urine glucose, and urine volume and retinal VEGF immunohistochemistry.
15 rats were randomly divided into […], which were labeled as a control group, and fusion protein I, protein II, protein III, protein IV and protein V treatment groups. The administration was performed via intravitreal injection once every 5 days for 2 weeks, in which the control group was injected with physiological saline (0.1 mL), and the fusion protein I, protein II, protein III, protein IV, and protein V were all administered with 100 μg (0.1 mL). Observation was performed on week 4, week 8, and week 12.

[2] = test system: angiogenesis of chicken embryo chorioallantoic membrane; assay: Chicken embryo chorioallantoic membrane (CAM) angiogenesis assay; format: in vivo; conditions: for Blood vessel number / PI: CAM, 72 hours
Excerpt: In this study, CAM assay was used to investigate the activity of fusion protein I, protein II, protein III, protein IV, and protein V to inhibit angiogenesis in vivo. The study has shown that the biosynthesis rate of collagen reached the maximum on the 8th to 11th day of chicken embryo development, which was the most vigorous stage of angiogenesis, and the body's immune system had not yet been fully established at that time, and thus the chicken embryos developed to the 8th day was selected to be administered. […] The following steps were used.
(1) The White Leghorn chicken embryos on day 6 were cultured in a 37° C. incubator at 60%-70% humidity for two days.
(2) A 1.0 cm×1.0 cm window was drilled above the chicken embryo air sac, and the inner membrane was torn off with forceps to expose the chorioallantoic membrane. Lens paper having a diameter of 5 mm was used as a loading carrier, and was placed on the chorioallantoic membrane of the chicken embryo air sac. Filter paper with PBS was used as a blank group, and the administration group was added with different doses of fusion protein.
(3) The chicken embryo air sac was sealed with a sterile transparent tape, and after culturing at 37° C. for 72 hours, the chicken embryo air sac was opened, and a fixative (formaldehyde:acetone=1:1) was added for fixation for 15 minutes. The chorioallantoic membrane to which the lens paper was adhered was taken out, the distribution of the new blood vessels was observed, and the new blood vessels were counted and photographed. Five replicates were set for each dose and the results were statistically analyzed.

[3] = test system: IL-1β production by mouse peritoneal macrophages; assay: IL-1β production by mouse peritoneal macrophages (ELISA); format: cell-based
Method: (1) IL-1β production: mice were intraperitoneally injected with 1 mL of broth medium containing 6% starch, and three days later, the mouse peritoneal macrophages were aseptically taken, washed twice with a 1640 medium, and the cell concentration was adjusted to 2×10^6 cells/mL, inoculated into a 24-well culture plate at 1 mL/well, incubated for 3 h in a cell incubator, and shaken once every 30 min, so that the cells were allowed to adhere sufficiently. Then, the cells were washed twice with a culture liquid to remove un-adhered cells. […] The supernatant was taken as a sample for testing activity of IL-1β.
(2) Determination of IL-1β content: the detection was performed by using mouse IL-1β enzyme-linked immunosorbent assay kit from R&D company. According to the instructions of the kit, the procedures were as follows: the reaction well for the test samples and different concentrations of standards were sealed with sealing tapes, respectively, incubation was performed at 37° C. for 90 min; the plate was washed four times; a biotinylated antibody working solution (100 μL/well) was added, the reaction well was sealed with sealing tapes, and incubation was performed at 37° C. for 60 min; the plate was washed four times; an enzyme conjugate working solution (100 μL/well) was added, the reaction well was sealed with sealing tapes, incubation was performed at 37° C. for 30 min; the plate was washed four times; a developer (100 μL/well) was added, incubation was performed at 37° C. for 10 to 20 min, a stop solution (100 μL/well) was added and mixed and the OD450 value was measured.

[4] = test system: melanoma cell line B16F10; assay: MTT assay, proliferation of melanoma cell B16F10; format: cell-based
Method: The MTT assay was used to detect the inhibitory effect of the integrin blocker fusion protein obtained in Example 1 on the proliferation of various tumor cells, including melanoma cell B16F10, gastric cancer cell MGC-803, lung cancer cell A549, liver cancer cell Hep-G2, breast cancer cell MDA-MB-231, colon cancer cell HCT-116, human glioma U87, and cervical cancer cell Hela.
The tumor cells were cultured in a 5% CO2 incubator at 37° C. to a density of 90% or more, and collected by trypsinization. The cells were resuspended in the culture liquid and counted under a microscope. The cell concentration was adjusted to 3.0×10^4 cells/mL. The cell suspension was inoculated into a 96-well plate at 100 μL per well and cultured overnight in a 5% CO2 incubator at 37° C. […] After the cells were fully adhered, each dilution was added to a 96-well plate at 100 μL per well, respectively. […] 20 μL of 5 mg/mL MTT was added to each well of a 96-well plate, and incubation was continued for 4 hours. The medium was aspirated and 100 μL of DMSO per well were added to dissolve. The absorbance was measured at 570 nm with a microplate reader with a reference wavelength of 630 nm, and the proliferation inhibition (PI) was calculated. The formula is as follows: […]
where Ntest is the OD value of the test group and Ncontrol is the OD value of the blank control group.
The test was repeated 5 times independently. The results obtained from the test were calculated as mean±SD, and statistical t-test was performed. P<0.05 was considered as a significant difference, and P<0.01 was considered as an extremely significant difference.

B1: Protein II: IgG2-Fc linked to antiangiogenesis polypeptide EDSM-Y via a flexible linker; SEQ ID NO: 17 (protein)
chain: ERKCCVECPPCPAPPVAGPSVFLFPPKPKDTLMISRTPEVTCVVVDVSHEDPEVQFNWYVDGVEVHNAKTKPREEQFNSTFRVVSVLTVVHQDWLNGKEYKCKVSNKGLPAPIEKTISKTKGQPREPQVYTLPPSREEMTKNQVSLTCLVKGFYPSDISVEWESNGQPENNYKTTPPMLDSDGSFFLYSKLTVDKSRWQQGNVFSCSVMHEALHNHYTQKSLSLSPGKGGGGSGGGGSGGGGSFQPVLHLVALNSPLSGGMRGIRGADFQCFQQARAVGLAGTFRAGGGGRGD
therapeutic effect on diabetic retinopathy [1]: a certain therapeutic effect on diabetic retinopathy | Blood vessel number ([2]; 8 μg): 102 ± 10 | PI ([2]; 8 μg): 17.07% | Blood vessel number ([2]; 32 μg): 83 ± 11 | PI ([2]; 32 μg): 32.52% | Blood vessel number ([2]; 128 μg): 66 ± 7 | PI ([2]; 128 μg): 46.34% | inhibitory effect on angiogenesis of CAM ([2]; high dose): ~50% | IL-1β ([3]; dose 8 μg/mL): 746.38 ± 16.59 pg/mL | PI (%) ([3]; dose 8 μg/mL): 11.85% | IL-1β ([3]; dose 32 μg/mL): 596.02 ± 19.97 pg/mL | PI (%) ([3]; dose 32 μg/mL): 29.61% | IL-1β ([3]; dose 128 μg/mL): 440.56 ± 11.38 pg/mL | PI (%) ([3]; dose 128 μg/mL): 47.97% | inhibition of IL-1β production ([3]; in words): could significantly inhibit IL-1β production | A570 nm/A630 nm ([4]; dose 1 μg/mL): 1.1137 ± 0.0370 | PI (%) ([4]; dose 1 μg/mL): 11.17% | A570 nm/A630 nm ([4]; dose 2 μg/mL): 1.0250 ± 0.0230 | PI (%) ([4]; dose 2 μg/mL): 18.24% | A570 nm/A630 nm ([4]; dose 4 μg/mL): 0.8986 ± 0.0731 | PI (%) ([4]; dose 4 μg/mL): 28.32% | A570 nm/A630 nm ([4]; dose 8 μg/mL): 0.7243 ± 0.0421 | PI (%) ([4]; dose 8 μg/mL): 42.23% | A570 nm/A630 nm ([4]; dose 16 μg/mL): 0.6400 ± 0.0661 | PI (%) ([4]; dose 16 μg/mL): 48.95% | A570 nm/A630 nm ([4]; dose 32 μg/mL): 0.5034 ± 0.0286 | PI (%) ([4]; dose 32 μg/mL): 59.85% | A570 nm/A630 nm ([4]; dose 64 μg/mL): 0.3867 ± 0.0195 | PI (%) ([4]; dose 64 μg/mL): 69.16% | PI (%) ([4]; dose 128 μg/mL): 76.59% | A570 nm/A630 nm ([4]; dose 256 μg/mL): 0.1777 ± 0.0212 | PI (%) ([4]; dose 256 μg/mL): 85.83%
